Assay results reported in the nanobody polyreactivity screen of Harvey et al. (2022).

Test: yeast display, Sf9 membrane polyspecificity reagent, FACS + sequencing; frameworks hold sequencing errors
How it was run: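 In a synthetic yeast display library (Saccharomyces cerevisiae BJ5465), nanobody expression was induced with galactose for 36–48 hours. FACS gates were set low and high (top ~1%) using anti-HA fluorescence for expression and streptavidin fluorescence for binding of the Sf9 membrane reagent. Each polyreactivity label is drawn from the gate of origin.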

| Sequence | polyreactivity (PSR sort gate) |
| --- | --- |
| QVQLVESGGGLVQAGGSLRLICAASGRTFGVYAMGWYRQAPGKERELVATIRTTGSTNYADSVKGRYTISRDNAKITVYLEMNSLKTEDTAVYYCAARQRQSKYYPYTTFTYDYWGQGTQVSVSS | high polyreactivity |
| QVQLVESGGGLVQAGGSLRLSCAASGFIFGYYAMGCYTQAPGKERELVARSTSSGGSTYYADSVKGRFTISRDNAKTTVYLQMNSLKPEDTAVYYCAKSPRAPRYMPYGYWGQGSQVTVSS | high polyreactivity |
| QVQLVESGGGLVQAGGSLRLSCAASGFTFAGYAMGWYRQAPGKERELVAPINRGGSTYYADSVKGRFTISRDNAKNTVYLQMNSLKQEDTAVYYCADRQEPGWYPDVWWEYDYWGQGTQVTVSS | low polyreactivity |
| QVQLVESGGGLVQAGGSLRLSCAASGRIFYYYTMGWYRPAPGKERELVARITGLTGRTYYADCVKGRFTISRDNGKNTVYLQMNSLKPEDTAVYYCNARYFRHYDYWGQGTQGTVSS | high polyreactivity |
| QVQLVESGGGLVQAGGSLRLSCAASGSTSPGYAMGWYRQAPGKERELVAAITFRGTRTYYADSVKGRFTISRDNAKNTVYLQMNSLKPEDTAVFYCNVVGYGPNRGRVDYWGQGTQVTVSS | high polyreactivity |
| QVQLVESGGGLVQAGGSLRLSCAASGFTFKRYAMGWYRQAPGKEREFVAAITRGGGSTYYTDSVKGRFTISRDNAKNTVYLQMNSLKPEYTAVYYCAAVLYYYWRGYGPRSNRYDYWGQGTQVTVSS | high polyreactivity |
| QVQLVESGGGLVQAGGSLRLSCAASGFIFKRYAMGWYRQAPGKERELVAAITSGGSTHYADSVKGRFTISRDNAKNTVYLQMNSLKPEDTAVYYCAAVPRVNWSRYVYFWYDYWGQGTQVTVSS | high polyreactivity |
| QVQLVESGGGLVQAGGRLRLSCAASGGTFYLIAMGWYIQAPGKERELVAAISGSGTSTYYADSVKGRFTISRDNAKNTVYLQMNSLKPEDTAVYYCAADGTYFYIYLGDRFDYWGQGTQVTVSS | low polyreactivity |
| QDQLVESGGGLVHAGGSLRLSCAASGSTFQYYVMGWYRQAPGKERELVAAITWSGGSTYYADSVKGRFTISRDNAKNTVYLQMNSLKPEDTAVYYCKAASGPDFEYEYWGEGTQVTVSS | low polyreactivity |
| QVQLQESRGGLVQAGGSLRLGFAASGNISDAGNKGWYRQAPGKEREFVAAIAAGSNTNYADSVKGRFTISRDNAKNTVYLQMNSLKPEDTAVFYCAVAYYARLQYEYWGQGTQVTVKS | low polyreactivity |
| QVQLVESGGGLVQAGGSLRLICAASGSIFSFYAMGWYRQAPGKERELVAAITSDGSTDYADSVKGRFTISRDNAKNTVYLQMNCLKPEDTAVYYCAADYIVRVVSRYRYGYEYWGQGTQVTVSS | low polyreactivity |
| QVKLEESGGGLVQAGGSLRLSCAASGSTFRAYTMGWYRQAPAKEREFVAAISRSGGSTFYADSVKGRFTISRDYAKNTVYLQMNSLKPEDNAVYYCAASYRYSASYYWGEGTQVTVSS | high polyreactivity |
| QVQLVESGGGLVQAGGSLRLSCAASGSIRHNTIGWYRQAPGKESEFVASISKRGGSTYYADSVKGRFTISRDNAKNTVYLQMNSLKPEDTAVYYCNAGAVTFVGRDYWGQGTQVTVSS | high polyreactivity |
| QVQHVESRGGLVQAGGSLRLSCAASGSIFGYYGMGWYRQAPGKERELVATITSGGSTNYADSVKGRFTISRDNAKNTVYLQMNSLKPEDTAVYYCARQYGYQPERYGYWGQGTQVTVSS | low polyreactivity |
| QVQLVESGGGLVQAGGSLRLSCAASGRNFYGYTMGWYRQAPGKERELVAAITSGGSTYYADSVKGRFTISRDNAKNTVYLQMNSLKPEDTAVYYCNAKYNGYYRRFSEYDYWGQGTQVTVSS | high polyreactivity |
| QVQLVESGGGLVQAGGTLRLSCAASGRTFSGYAMGWYRQAPGKERELVAAIDRGDGTNYADSVKGRFTISRDNAKNTVYLQMNSLKPEDTAVYYCAADYSYGSTSHTYTGFDYWGQGTQVTVSS | low polyreactivity |
| QVLLVESGGGLVQAGGSLRLSCAASGRTLPPNAMGWYRQAPGKERELGAGITWSGGSTYSADSVKGRFTISRDNAKNTVYLQMNSLKPEDTAVYYCAASRSFPGYGLYYYWGQGTQVTVSS | low polyreactivity |
| QVQLVESGGGLVQAGGSLRLSCAPSGFTFLGYDMGWYRQAPGKERELVAAIDYSGGSTYYADSVKGRFTISRDNAKNTVFLQMNSLKPEDTAVYDCAAEYQSGPYTWYEYWGQGTQVTVSS | high polyreactivity |
| QVQLVESGGGLVQAGGSLRLSCAASGRTFLTYAMGWYRQAPGKERELVAAISKRGGSTYYADSVKGRFTISRDNAKNTVYLQMNSLKPEDTAVYFCAADNGNHYGFWGQGTQVTVSS | high polyreactivity |
| QVQLVESGGGLVQAGGSLRLSCAASGIISSVYAMGWYRQAPGKERELVAAISGSGGSTYYADSVKGRFTISRDNAKNTVYLQMNSLKPEDTAVYYCAIGYQYQGNSYGYWGQGTQVNVSS | low polyreactivity |
| QVQLVESGGGLVQAGGSLRLSCAASGSTFYINAMGWYRQAPGKERVLVAAISWSGGSTYYADSVKGRFTISRDNAKNTVYLQMNSLKPEDTAVYYCAADWYLGWSLDYDYWGQGTQVTVSS | low polyreactivity |
| QVQLVQSGGGLVQAGGSLRLSCAASGSIFTPNAMGWYRQAPGKERELVAAISGRTGTTYYADSVKGRFTISRDNAKNTVYLQMHSLKPEDTAVYYCAKSSGRYRSDYRGQGTQVTVSS | high polyreactivity |

| Sequence | polyreactivity (PSR sort gate) |
| --- | --- |
| QVQHVESGGGLVQAGGSLRLSCAASESILNRYVMGWYRQATGKERELVCTYYADSVKVRFTISRDNAKNTVYLQMNSLKPEDTAVYYCAADVYLYYAGSRYYYWGQGTQVTVSS | low polyreactivity |
| QVQLVESGGGLVQAGCSLRLSCAASGSTFDNYAMGWYRQAPGKERELVAAISSSGTRTYYADSVKGRFTISRDNAKNTVYLQMNSLKPEDTAVYYCAAGGHYYSSPGYNYWGLGTQVTVSS | high polyreactivity |
| QVQLVESGGGLVQAGGSLRLSCAASGLTFGGNARGWYRQAPGNERELVAPISSRGGSTYYADSVKGRFTISRDNAKNTVYLQMNSLKPEDTAVYYCAAGNRYGVRQLYQIVTRYYWGQGTQVTVSS | high polyreactivity |
| QVQLVESGGGLVQAGGRLRLSCAASGSIFLFYAMGWYRKAPVKERELVARITSSGGTTYYADSVKGRFTISRDNAKNTVYLQMNSLKPEDTAVYYCAASYFIYHYDFDYWGQGTQVTVSS | high polyreactivity |
| QVQLVESGGGLVQAGGSLRLSCAASGGTFNGYAMGWYRQAPGKERELVAAITSGGGSTYADSVKGRFTISRDNAKNTVYLQMNSLKTEDTAVYYCNADQWDEWFWDYDYWGQGTQVTVSS | low polyreactivity |
| QVQLVESGGGLVQAGGSLRISSAASGRTFQTNVMGWYRQAPGKERELVAAISKTGGRTYYADSVKGRFTISRDNAKNTVYLQMNSLNPEDTAVYYCAADSSGYEDYDYWGQGTQVTVSS | high polyreactivity |
| QVQLVESGGGLVQAGGSLRLSCAASGSILDRNAMGWYRQAPGKERELVAAISRSRGSTYYADSVKGRFTISRDNAKNTVYLQMNSLKPEDTAVYYCNAYYPFYTLIYGGPVRYYNFDYWGQGPQVTVSS | high polyreactivity |
| QVQLVESGGGLVQAGGSLRLSCAASGRIFPPNAMGWYRQAPGKERELVAAITGSGGSTYYADSVKGRFTITRDNAKNTVYLQKNSLKPADTAVYYCAVESLGRVSRGYDYWGQGTQVTVSS | low polyreactivity |
| QVQLGESGGGLVQAGGSLRLSCAASGRIFPWNTMGWYRQAPGKERELVAGITSGGSTNYADSVKGRFTISRDNAKNTVYLLMNCLKPEATAVYYCAARGYYWYISGVYEYEYWGQGTQVTLSS | low polyreactivity |
| QVQLVESGGGLVQAGGSLRLSCAASGITFVSYGMGWYRQAPGKERELVAAISSGGRTYADSVKGRFTISRDNAKNTVYLQMNSLKPEDTAVYYCNARDYASGTEGDYWGQGTLVTVSS | low polyreactivity |
| QVQLVEAGGGLVQAGGSLRLSCAASGGIFLPYAMGWYRQAPGKERELVAGITSVGSTYADSVKGRFTISRDNAKNTVYLQMNSLKPEDTAVYYCNADIYFVEYDYWGQGTQVTVSS | low polyreactivity |
| QVQLVESGGGLVQAGGRLRLSCPASGRTFRGYARGWYRQAPRKERELLAAITSGGSTNYADSVKGRFTISRDNAKNTVYLQKKSLKPEDTAVYYCAADSWFYGGEYKLGYYWGQGTQVSVSS | low polyreactivity |
| QVQLVESGGGLVQAGGSLRLSCAASGSTFYVYAMGWYRQAPGKERELVASINSGGITNYADSVKGRFTISRDNAKNTVYLQMNSLKPEDTAVYYCAARSYKTGRYPQRNKYYYWGQGTQVTVSS | high polyreactivity |
| QVQLVESGGGLVQAGGSLRLSCAASGSIFWLYAMGWYRQAPGKERELVAAIDSGDSTKYADSVKGRFTISRDNAKNTVYLQMNSLKPEDTAVYYCNVRLGDRFFRHDYWGQGTQVTVSS | low polyreactivity |
| QVQLVESGGGLVQAGGSLRLSCAASGNIFKYYAMGWYRQAPGKERELVAAISWGGSRTYYADSVKGRFTISRDNAKNTVSLQMNSLKPEDTAVYYCAARVYGVDGFGYWGLGTQVTVSS | high polyreactivity |
| QVQLVESGGGLVQAGGSLRLSCAASGSTFVPYAMGWYRQAPGKERELVAAISSAGSTNYADSVKGRFTISRDNAKNTVYLQMNSLKPEDTAVYYCARDIQDTYVFDYWGQGTQVTVSS | low polyreactivity |
| QVQLVESGGGLVKAGGSIRISCAPSGRIFNQYGIGRNRQAPGKEMELVDAIRSGDSTNYADSVKGRFTISRDNAKNTFYLQMNRLKPEDTAVYFCARDRPGDYAGSDYWGQGTQVTVSS | low polyreactivity |
| QVQLVESGGGLVQAGGSLRLSCAASGRIFGNTMGWYRQAPGKERELVAAITRSGVSTYYADSVKGRFTISRDNAKNTVYLQMNSLKPEDTAVYYCAKVYSRRSVLSRYGSWGQGTQVTVSS | high polyreactivity |
| QVQLVESGGGLVQAGGSLRLSCAASGNIFSWNTMGWYRQAPGKERELVAAITYRGTRTFYADSVKRRFTISRDNAKNTVYLQMNSLKPEDTEVYYCAATRYAPYRRYYYWGQGTQVTVSS | high polyreactivity |
| QVQLVESGGGLVQAGGSLRLSCAASGSIFRPNTMGWYRQAPGKERELVAAINWSGDDTYYADSVKGRFTISRDNAKNTVYLQMNSLKPEDTAVYYCAVDLFDGVTKLNYDYWGQGTQVTVSS | low polyreactivity |
| QVLLVESGGGLVQAGGSLRLSCAASGRTFARNTMGWYRQAPGKERELVAGITSTGSTNYADSVKGRFTISRDNAKNTVYLQMNSLKPEDTAVYYCNARRYRPGSQYGYDYWGQGTQVTVSS | high polyreactivity |
